Reference: US20220289830A1 (STAIDSON BEIJING BIOPHARMACEUTICALS, published 2022)
Substitutions are numbered along the chain they refer to.

B1: 7C1 (antibody, V domains shown)
VH: EVQLLESGGGLVQPGGSLRLSCTASGFTFSDNHMSWVRQAPGKGLDWVSGISESGGSTNYADSVKGRFSTSRDNSKSTLYLDMNSLRAEDTAIYYCAKGRFSTSSSHFYRAVYGMDVWGQGTAVTVSS
VL: DIQLTQSPSSLSASVGDRVTITCRASQGISSYLAWYQQKPGKAPKLLIYAASTLQSGVPSRFSGSGSGTDFTLTISSLQPEDFATYYCQQLSSYPLSFGGGTKVEIK
notes: also called optimized anti-PcrV mAb clone 7C1
B2: 7B1 (antibody, V domains shown)
VH: B1 VH with H33Y, G50V, S104L, Y109F
VL: B1 VL with S97T
notes: also called 7B1-IgG1; 7B1 mAb
B3: 8C1 (antibody, V domains shown)
VH: B1 VH with S104N, S106A, Y109F
VL: B1 VL with S97T
notes: also called optimized anti-PcrV mAb clone 8C1
B4: 3A9 (antibody, V domains shown)
VH: B1 VH with N32Y, H33S, T103D, S105T, S106K, Y109F
VL: B1 VL
notes: also called optimized anti-PcrV mAb clone 3A9
B5: 5B3 (antibody, V domains shown)
VH: B1 VH with N32Y, H33P, Y60D, T103Q, S104D, S106Y, Y109F
VL: B1 VL
notes: also called optimized anti-PcrV mAb clone 5B3
B6: 3B12 (antibody, V domains shown)
VH: B1 VH with D31S, T103D, S104E, S105Y, S106G, Y109F
VL: B1 VL with S97T
notes: also called optimized anti-PcrV mAb clone 3B12
B7: 13-42 mAb (antibody, V domains shown)
VH: B1 VH with N32Y, H33P, Y60D, S102C, S104N, H107C, Y109F
VL: B1 VL
B8: 4A10 (antibody, V domains shown)
VH: B1 VH with D31S, N32Y, H33P, T103D, S104A, S106E, Y109F
VL: B1 VL with A43T, S97T
notes: also called optimized anti-PcrV mAb clone 4A10
B9: 2B1 (antibody, V domains shown)
VH: B1 VH with D31S, N32Y, H33P, T103G, S104E, S106H, Y109F
VL: B1 VL
notes: also called optimized anti-PcrV mAb clone 2B1
B10: 7B2 (antibody, V domains shown)
VH: B1 VH with N32Y, H33P, S104D, Y109F
VL: B1 VL
notes: also called optimized anti-PcrV mAb clone 7B2
B11: 3H10 (antibody, V domains shown)
VH: B1 VH with N32Y, H33P, Y60D, T103D, S104Y, S106Q, Y109F
VL: B1 VL with S92N, S97T
notes: also called optimized anti-PcrV mAb clone 3H10
B12: 3G3 (antibody, V domains shown)
VH: B1 VH with N32Y, H33P, N59Y, Y60D, T103A, S105A, S106G, Y109F
VL: B1 VL with S30R
notes: also called optimized anti-PcrV mAb clone 3G3
B13: 6A10 (antibody, V domains shown)
VH: B1 VH with Y109F
VL: B1 VL
notes: also called optimized anti-PcrV mAb clone 6A10
B14: 3A11 (antibody, V domains shown)
VH: B1 VH with D31S, N32Y, T103Q, Y109F
VL: B1 VL with S97T
notes: also called optimized anti-PcrV mAb clone 3A11
B15: 6D10 (antibody, V domains shown)
VH: B1 VH with N32Y, H33P, S104D
VL: B1 VL
notes: also called optimized anti-PcrV mAb clone 6D10

Biological target: T1, recombinant Pseudomonas aeruginosa PcrV, full-length (PAO), His-tagged (Pseudomonas aeruginosa)
Assay: BLI

Binder | Kd [nM]
B1 | 0.101
B2 | < 0.001
B3 | 0.33
B4 | 0.533
B5 | 0.455
B6 | 0.167
B7 | 0.414
B8 | 0.606
B9 | 0.194
B10 | 0.0875
B11 | 0.779
B12 | 0.381
B13 | 0.204
B14 | 0.126

Biological target: T1, recombinant Pseudomonas aeruginosa …
Assay: SPR (BIACORE)

Binder | Kd [nM]
B1 | 0.0457
B15 | 0.052
B2 | 0.0847
B3 | 0.0316

Biological target: T2, native PcrV on live Pseudomonas aeruginosa (strains O6-57/66, O11-PA103, O1-52/66, O16-177/81) (Pseudomonas aeruginosa)
Assay: cell-based or functional assay

Binder | RBC lysis assay IC50 (P. aeruginosa strain 57/66(O6)) [µg/mL]
B1 | 0.1
B15 | 0.16
B2 | 0.1
B3 | 0.12
B4 | 0.23
B5 | 0.12
B6 | 0.16
B7 | 0.23
B8 | 0.16
B9 | 0.12
B10 | 0.05
B11 | 0.16
B12 | 0.18
B13 | 0.04

Biological target: T2, native PcrV on live Pseudomonas …
Assay: cell-based or functional assay
Remark: another data set of the same source

Binder | A549 cytotoxicity assay IC50 (P. aeruginosa strain PA103(O11)) [µg/mL]
B1 | 1.36
B15 | 2.63
B2 | 1.06
B3 | 1.94
B4 | 1.21
B5 | 2.39
B6 | 2.68
B7 | 2.67
B8 | 2.8
B9 | 3.01
B10 | 2.32
B11 | 1.78
B12 | 2.75
B13 | 2
B14 | 0.91

Biological target: T2, native PcrV on live Pseudomonas …
Assay: cell-based or functional assay
Remark: another data set of the same source

Binder | RBC lysis Average IC50 over the three strains [µg/mL] | RBC lysis IC50, strain O1-52/66 [µg/mL] | RBC lysis IC50, strain O6-57/66 [µg/mL] | RBC lysis IC50, strain O16-177/81 [µg/mL]
B1 | 0.195 | 0.367 | 0.0767 | 0.141
B2 | 0.214 | 0.308 | 0.138 | 0.197
B3 | 0.266 | 0.424 | 0.121 | 0.252
B7 | 0.355 | 0.472 | 0.13 | 0.464

Biological target: T2, native PcrV on live Pseudomonas …
Assay: cell-based or functional assay
Remark: another data set of the same source

Binder | A549 cell lysis Average IC50 over the strains [µg/mL] | A549 cell lysis IC50, strain O1-52/66 [µg/mL] | A549 cell lysis IC50, strain O6-57/66 [µg/mL] | A549 cell lysis IC50, strain O11-PA103 [µg/mL] | A549 cell lysis IC50, strain O16-177/81 [µg/mL]
B1 | 1.18 | 2 | 0.496 | 1.12 | 1.09
B2 | 2.13 | 4.56 | 0.503 | 2.61 | 0.861
B3 | 1.05 | – | 0.721 | 1.54 | 0.881
B7 | 1.38 | 2.34 | 0.891 | 1.21 | 1.08

Biological target: T1, recombinant Pseudomonas aeruginosa …
Assay: ELISA, PcrV coated on the plate, goat anti-human Fc-AP detection

Binder | EC50 [µg/mL]
B1 | 0.134
B2 | 0.125
B3 | 0.111
B4 | 0.116
B5 | 0.109
B6 | 0.118
B7 | 0.132
B8 | 0.113
B9 | 0.162
B10 | 0.0967
B11 | 0.149
B12 | 0.0936
B13 | 0.104
B14 | 0.0952
